In the data set the target is SARS-CoV-2 N protein C-terminal domain (NCTD) (SARS-CoV-2, UniProt P0DTC9 256-364). Nature of the data set: EMSA; […]; binding buffer not stated ([…]. To be noted: protein: recombinant; tags: N-terminal His6-TEV site (pET28a); chain copies: 2; label: 5' IRDye-800CW. (In EMSA bound probe runs differently from free probe, usually more slowly.)

The term Kd denotes the free concentration of one partner at which half of the binding sites on the other are occupied at equilibrium, for simple one-to-one binding. On to CGGUUUCUCCG (ssRNA) [Oligo-U (SL5a G to U)], for which the Kd turned out to be 140 ± 29 nM.

The values above are taken from paper PMC9288159, “Identification of a guanine-specific pocket in the protein N of SARS-CoV-2”.
